Entries after “also recorded” stand apart in the source; their conditions may differ.

Type in all cases: cell-based, human
Series [1] deals with IFN-γ-stimulated smooth muscle cells elastase activity. Kind of series: Elastase assay: smooth muscle cells co-cultured with insoluble [3H]-elastin. The text has this: FIG. 2 is a bar graph showing that smooth muscle cells elastase activity is inhibited by recombinant cystatin C. Interferon-γ stimulated smooth muscle cells were co-cultured in serum-free medium with insoluble elastin in the presence of increasing concentrations of cystatin C as indicated in the panel. After 72 hrs, media were collected and soluble radioactivity measured as an index of elastin degradation.
FIG. 3 is a graph showing that TGF-β1 blocks smooth muscle cells elastase activity. Interferon-stimulated smooth muscle cells were co-cultured with elastin as above in the presence of increasing amounts of TGF-β1 and elastin degradation quantified after 72 hrs.
Prior studies documenting the capacity of macrophages to use cysteine proteases to degrade elastin found macrophage elastolytic activity to be insensitive to the presence of pericellular serum protease inhibitors (Reedy et al., 92 Porch. Natl. Acad. Sci. 3849-853 (1995); Chapman et al., 74 J. Clin. Invest. 1693-700 (1984)). Given the marked reduction of cystatin C in atherosclerotic and aneurysmal lesions and the clinical correlation in EXAMPLES 1-3, the influence of cystatin C on the elastolytic activity of cultured vascular smooth muscle cells was examined. Vascular smooth muscle cells were stimulated with IFN-γ (500 units/ml) for 24 hours to augment cathepsin S-dependent elastase activity (Sukhova et al., 102 J. Clin. Invest. 576-83 (1998)). In co-cultures with insoluble elastin, the addition of as little as 10 ng/ml of recombinant cystatin C inhibits elastin degradation (FIG. 2). Higher concentrations of cystatin C block >75% of the IFNγ-induced activity, confirming that smooth muscle cells elastase activity depends largely on elastolytic cysteine proteases.
The elastase assay was performed as follows: Smooth muscle cells were cultured on 24-well plates in 10% FBS DMEM until 100% confluence (5×10^5 cells/well). […] The digested elastin radioactivity was counted using 200 μl of medium and the data presented as μg elastin degraded per 10^6 cells in 24 hours.

Series [2] deals with cathepsin S and cystatin C protein/secretion by smooth muscle cells. The experiment in a line: Immunoblot analysis of smooth muscle cell lysates and culture medium. Particulars: for cystatin C secretion (level of secreted cystatin C): cultured vascular smooth muscle cells, culture medium. The method, then: Human sapheneous vein smooth muscle cells were cultured in Swell plates in Dulbecco's Modification of Eagle's Medium (DMEM) containing 10% fetal bovine serum (FBS) until confluent. […] Culture medium was then collected and centrifuged at 16000×g for 10 min. Proteins were precipitated with 20% trichloroacetic acid on ice for 30 min. followed by repeat centrifugation. The protein pellet was briefly washed with 100% ethanol and resuspended in electrophoresis sample buffer smooth muscle cells were lysed directly into sample buffer after two washes with 1×PBS. Both cell lysates and proteins from culture medium were separated on SDS-PAGE for immunoblot analysis with antibodies against human cathepsin S and cystatin C as described above. All Western blots were developed with Western Blot Chemiluminescence Reagent (NEN Life Science Products, Inc., Boston, Mass., USA).
(In general: A western blot detects proteins with antibodies after separation by electrophoresis.)

Series [3] deals with cathepsin S and cystatin C mRNA in smooth muscle cells. The experiment in a line: Northern blot analysis of smooth muscle cell RNA. The method, then: Total RNAs were isolated from control and IFN-γ-stimulated smooth muscle cells for Northern blot analysis. Northern blot analysis was performed as follows: After INF-γ and TGF-β1 treatments, 1.5×10^7 smooth muscle cells were lysed in 5 ml of guanidium. isothiocyanate (GTC) lysis buffer for RNA preparation as described (Sukhova et al., 102 J. Clin. Invest. 576-83 (1998)). Twenty micrograms of total RNA from smooth muscle cells were separated on 1.2% agarose gel and blotted on Zeta-Probe GT blotting membrane (Bio-Rad Laboratories, Inc.). A human cystatin C probe was generated by polymerase chain reaction using cystatin C cDNA. The 500 bp cystatin C cDNA fragment and cathepsin S cDNA probe (Sukhova et al., 102 J. Clin. Invest 576-83 (1998)) were labeled with [^32P]-dCTP and purified with NENSORB 20 column (NEN Life Science Products, Inc.) before hybridizing as previously described (Sukhova et al., 102 J. Clin. Invest. 576-83 (1998)).

Where [4] appears, read: smooth muscle cells, TGF-β1 5 ng/ml.
The mark [5] stands for this setting: smooth muscle cells stimulated with IFN-γ (500 units/ml).

In the case of “TGF-β1: transforming growth factor-β1, native or recombinant cytokine (SEQ ID NO:2); induces cystatin C secretion”, the “concentration that almost completely blocks elastase activity” value in series [1] (IFN-γ-stimulated smooth muscle cells, elastin degradation after 72 hrs) is no more than 1 ng/mL. Moreover, the “cystatin C secretion (level of secreted cystatin C)” value in series [2] is reported as “markedly increases; also recorded: stimulates; also recorded: potent inducer”. The “time after exposure at which cystatin C biosynthesis increases” value in series [2] (smooth muscle cells exposed to TGF-β1) is listed as “one”. In series [2] (setting [4]), the “level of cathepsin S protein” value is reported as “does not change”. In series [3] (setting [4]), the “level of cathepsin S mRNA” value is “does not change” and the “level of cystatin C mRNA” value was “does not change”.

B1: IFN-γ: pro-inflammatory cytokine used at 500 units/ml to stimulate smooth muscle cell cathepsin S-dependent elastase activity (protein, UniProt P01579 24-161, looked up)
Interferon gamma: QDPYVKEAENLKKYFNAGHSDVADNGTLFLGILKNWKEESDRKIMQSQIVSFYFKLFKNFKDDQSIQKSVETIKEDMNVKFFNSNKKKRDDFEKLTNYSVTDLNVQRKAIHELIQVMAELSPAAKTGKRKRSQMLFRG
For B1, the “cystatin C secretion (level of secreted cystatin C)” value in series [2] was “no effect”. In addition, in series [2] (setting [5]), the “secretion of active cathepsin S” value is “induces”. Further, the “cathepsin S mRNA” value in series [3] (setting [5]) is “induces”.

B2: recombinant cystatin C: 13 kDa extracellular inhibitor of cysteine proteases, human sequence SEQ ID NO:1; native or recombinant (protein, UniProt P01034 27-146, looked up)
Cystatin-C: SSPGKPPRLVGGPMDASVEEEGVRRALDFAVGEYNKASNDMYHSRALQVVRARKQIVAGVNYFLDVELGRTTCTKTQPNLDNCPFHDQPHLKRKAFCSFQIYAVPWQGTMTLSKSTCQDA
On to B2, for which the “concentration that inhibits elastin degradation (elastolytic activity)” value in series [1] (IFN-γ (500 units/ml) stimulated vascular smooth muscle cells co-cultured with insoluble elastin, 72 hrs) is no more than 10 ng/mL. Besides, in series [1] (higher concentrations of cystatin C (tested 0-500 ng/ml), IFN-γ-stimulated smooth muscle cells), the “block of IFNγ-induced elastase activity” value is given as greater than 75%.

The record behind these values is patent US6773704B1, “Methods of treating vascular disease associated with cystatin C deficiency” (The Brigham and Women's Hospital, Inc., priority 1999, dated 2004).
